These results are taken from article PMC12788653 (PLOS Pathogens, 2025).

This data set deals with the molecule itself. The data set can be described thus: SEC.

B1: recombinant A/WSN/1933 (H1N1) NP, NΔ7NP with C-terminal His tag (WT) (natural protein)
chain: RSYEQMETDGERQNATEIRASVGKMIGGIGRFYIQMCTELKLSDYEGRLIQNSLTIERMVLSAFDERRNKYLEEHPSAGKDPKKTGGPIYRRVDGKWMRELILYDKEEIRRIWRQANNGDDATAGLTHMMIWHSNLNDATYQRTRALVRTGMDPRMCSLMQGSTLPRRSGAAGAAVKGVGTMVMELIRMIKRGINDRNFWRGENGRRTRIAYERMCNILKGKFQTAAQRAMVDQVRESRNPGNAEFEDLIFLARSALILRGSVAHKSCLPACVYGPAVASGYDFEREGYSLVGIDPFRLLQNSQVYSLIRPNENPAHKSQLVWMACHSAAFEDLRVSSFIRGTKVVPRGKLSTRGVQIASNENMETMESSTLELRSRYWAIRTRSGGNTNQQRASSGQISIQPTFSVQRNLPFDRPTIMAAFTGNTEGRTSDMRTEIIRLMESARPEDVSFQGRGVFELSDEKAASPIVPSFDMSNEGSYFFGDNAEEYDN
notes: also called WT NP; pET28a-NΔ7NP
As for B1, the binding result is recorded as “binds”.
